According to publication PMC6856373, “The first comprehensive phylogenetic and biochemical analysis of NADH diphosphatases reveals that the enzyme from Tuber melanosporum is highly active towards NAD^+” (Scientific Reports, 2019):

Experiments:
[1] = substrate: NC(=O)c1ccc[n+]([C@@H]2O[C@H](COP(=O)(O)OP(=O)(O)OC[C@H]3O[C@@H](n4cnc5c(N)ncnc54)[C@H](O)[C@@H]3O)[C@@H](O)[C@H]2O)c1; assay: HPLC of AMP formation, initial rates, Michaelis-Menten fit; format: biochemical, Tuber melanosporum; conditions: 50 mM Tris-HCl pH 8.0, 37 °C, 0.5 mM MnCl2
From the text: (§1) HPLC of AMP formation, initial rates, Michaelis-Menten fit on […]

[2] = substrate: NC(=O)C1=CN([C@@H]2O[C@H](COP(=O)(O)OP(=O)(O)OC[C@H]3O[C@@H](n4cnc5c(N)ncnc54)[C@H](O)[C@@H]3O)[C@@H](O)[C@H]2O)C=CC1; assay: as above; format: biochemical, Tuber melanosporum; conditions: 50 mM Tris-HCl pH 8.0, 37 °C, 0.5 mM MnCl2
From the text: as §1

B1: TmNADD (Tuber melanosporum Mel28) (protein)
chain: MTQPYTATTESHKTSMLSRKFGQEIINYFSGSPLNRVSFLRSSTAFLRAALPRSKFLLMRDLEPLAASKTTLAWVGYETVRELVGNPFDTEEEEFLRGYDSRVEIPTLVFLGMNEEGTGGGGGGESFEFEGEGGKYVGGPCFALDVTEKGSLKEECEKVQEEAVKGAEGREFRKVRLDLSLVPSDAAILAQARSLLDWNNRNQFCSACGARTVSVHAGTKRICPPSDKAFQKDPEGPPFERPPCISRKGIHNIAFPRTDPTVIMAIINSTGDKVLLGRQRRWPKDFYSTLAGFCEPAESVEDAVRRETWEESGVRVGRVVIHSTQPWPYPANLMMGAIGEALPGGEEIVLKHDPELEDAQWVEVGRVRNALQESTGTPDVEVEGAIEGQLRLPPSTAIAHQLLLAVVNGFHLAKL
- Km [1]: 310 ± 50 µM
- kcat [1]: 2.9 ± 0.2 s⁻¹
- kcat/Km [1]: 9300 ± 1600 M⁻¹ s⁻¹
- Km [2]: 120 ± 10 µM
- kcat [2]: 10.7 ± 1.8 s⁻¹
- kcat/Km [2]: 89200 ± 19800 M⁻¹ s⁻¹
